Experimental findings from patent publication US20190022245A1 are described below.

For this assay, the target named is epidermal growth factor receptor (EGFR) on cells (human (on human cell lines)) (UniProt P00533). The assay can be described thus: cell-based or functional assay.

B1: h15-2b Fab × EGFR scFv (monovalent anti-mPEG (h15-2b) anti-EGFR BsAb, example 2.3) (bispecific antibody, part only; not given: nothing essential named, not shown: another chain or arm of the molecule; ; small tags and cut ends)
light: DIQMTQSPSSLSASVGDRVTITCKASQDVNTSVAWYQQKPGKAPKLLIYWASTRHTGVPSRFSGSGSGTDFTFTISSLQPEDIATYYCLQYINYPYTFGQGTKLEIKRTVAAPSVFIFPPSDEQLKSGTASVVCLLNNFYPREAKVQWKVDNALQSGNSQESVTEQDSKDSTYSLSSTLTLSKADYEKHKLYACEVTHQGLSSPVTKSFNRGEC
heavy: EVQLVESGGGLVQPGGSLKLSCAASGFTFSNYWMNWVRQASGKGLEWVGEIRSKSNNYATHYAESVKGRFTISRDDSKNTAYLQMNSLKTEDTAVYYCSNRYYWGQGTLVTVSSASTKGPSVFPLAPCSRSTSESTAALGCLVKDYFPEPVTVSWNSGALTSGVHTFPAVLQSSGLYSLSSVVTVPSSNFGTQTYTCNVDHKPSNTKVDKTVERKGEQKLISEEDLGGGGSGGGGSGGGGSQLDIVMTQSPLSLPVTPGEPASISCRSSQNIVHNNGITYLEWYLQKPGQSPQLLIYKVSDRFSGVPDRFSGSGSGTDFTLKISRVEAEDVGVYYCFQGSHIPPTFGQGTKVEIKRAGGGGSGGGGSGGGGSQVQLVQSGAEVKKPGASVKVSCKASGYTFTSYWMHWVRQAPGQGLEWMGNIYPGSGGTNYAEKFKNRVTMTRDTSISTAYMELSRLRSDDTAVYYCARSGGPYFFDYWGQGTLVTVSS
With B1, the region of interest (ROI) ratio of SW480 (EGFR+) to SW620 (EGFR-) tumors, 24 h came out at 2.04; the region of interest (ROI) ratio of SW480 (EGFR+) to SW620 (EGFR-) tumors, 48 h amounted to 2.32; the region of interest (ROI) ratio of SW480 (EGFR+) to SW620 (EGFR-) tumors, 72 h worked out at 2.33.
